Results reported in article PMC11706625, “Structural and bioinformatics analyses identify deoxydinucleotide-specific nucleases and their association with genomic islands in gram-positive bacteria” (Nucleic Acids Research, 2025).

B1: NrnC homolog from Okeania (Cyanobacteria) (enzyme)
chain: MSDFQVCDRDLTEAILSDYLQADSIAVDTETMGLLPWRDRLCLVQLCDAQGKVTAIRIEKGQQEAPNLKQLMEATGIVKIFHFARFDVAMLQHHLDIKVSPIFCTKIASKLARTYTGKHGLKDLVMELEKVELDKSAQSSDWGNAENLTEEQLSYAANDVRYLLSVKEKLIKMLKREERWELAQQCFECLPVFVGLDLLQYKDIFEH

Assays:
[1] = molecular target: NrnC from Bartonella henselae (Bartonella henselae); experiment: SEC-MALS; 1-2 mg/ml (~40-80 uM) protein injected on Superdex 200 Increase 10/300 GL in 25 mM HEPES-NaOH, 150 mM NaCl pH 7.5, room temperature
[2] = molecular target: the molecule itself; experiment: as above

Molecule | stoichiometry N [1] | stoichiometry N [2]
NrnC from Bartonella henselae (enzyme) | 8 | 
B1 |  | 8
